This is an account of results in US20250163186A1 (PHYLAXIS BIOSCIENCE, published 2025).

Read-outs that look alike come from different tables or passages of the source.

Assay [1] has as its target T1, CH2-4 constant domains of human IgE linked to a transmembrane protein, on 293 cells (human, UniProt P01854-1 104-428).
T1 construct: domain: CH2-4 constant domains; also called human IgE-expressing 293 cells
Briefly: flow cytometry, 293 cells expressing human IgE CH2-4. Here is the method:
(§1) First, 25 μg of DNA was added to Opti-MEM Reduced Serum Medium (Gibco) mixed with 75 μL of 40 kDa Polyethylenimine (PEI) for a final concentration of 1 μg DNA and 2.5 μg PEI per mL of culture volume. The plasmid DNA was allowed to pre-complex with PEI for 15 minutes before transferring the mixture to 25 mL of 293 cells in a shake flask at a density of 2×10⁶ cells/mL. […] Next, 50 μL of cells were transferred to wells of a round-bottom 96-well assay plate for a total of 50,000 293 cells per well. In a separate 96-well plate, monomeric VHH-hIgG1-Fc fusion proteins were titrated 1:5 in a 8-point dilution series starting at 1 μM in FACS Buffer with the 8th point containing no antibody. 50 μL from each antibody dilution was added to wells containing 50 μL of FACS Buffer with transfected 293 cells which produced a 2-fold dilution of the antibody concentrations from the dilution series resulting in a 500 nM final, starting concentration of the test article titration. The test articles and 293 cells were incubated together at 4° C. for 30 minutes. Next, the 96-well plates were centrifuged at 400×g for 5 minutes and the FACS buffer containing unbound antibody was decanted. Cells were washed 1× with 150 μL 4° C. FACS Buffer. […] The cells were incubated with the fluorophore conjugated detection antibody at 4° C. for 20 minutes. 293 cells were then centrifuged and washed once as described above. Cell pellets were resuspended in 30 μL FACS Buffer and analyzed on an iQue Screener Plus flow cytometer (Sartorius, IntelliCyt) with a 1 second sip time and 1 second void time. Mean fluorescent intensity was calculated using iQue onboard software gating on GFP+ or citrine+ cells.
On the technique in general: Flow cytometry measures light scatter and fluorescence of single cells or particles in a stream.

Assay [2] deals with T1, CH2-4 constant domains of human IgE …. The description is as above. Here is the method:
as §1
The source holds these as a separate data set.

For assay [3] the target is unchanged. Described as above. Here is the method: as §1
This is another data set of the same source.

Assay [4] shares this target. Described as above. On the procedure: as §1
This is another data set of the same source.

Assay [5] shares this target. Described as above. On the procedure: as §1
This is another data set of the same source.

Assay [6] has as its target T2, human IgE (human, UniProt P01854 1-428).
T2 construct: written under the same molecule; also called IgE (Abcam ab65866); soluble IgE
Briefly: SPR (Biacore T200, 25 C), IgE captured on protein L, antibody as analyte, 1:1 fit. Here is the method: (§2) All experiments were done using a Biacore T200 instrument with a CM5 chip at 25° C., Flow Cell (FC) 1 was used as the reference for FC2, and FC3 for FC4.
Protein L (15 mg/mL) was diluted (1:50 dilution, 0.3 mg/mL diluted concentration) in 10 mM sodium acetate buffer at pH 4.5 and immobilized onto FCs 1 and 2 to a level of ˜13000 RU, using the standard amine coupling chemistry. […] PBS-P was used as the capture running buffer. Overnight kinetics were performed for all analytes in the presence of PBS-P. The flow rate of all analyte solutions was maintained at 50 μL/min. The contact and dissociation times used were 120 seconds and 600 seconds, respectively. Glycine pH 2.0 was injected for 20 seconds for surface regeneration. This regeneration condition takes away all captured ligand. Therefore, fresh ligand solution was captured in the beginning of each injection cycle. Injected analyte concentrations are from 50 nM to 0.098 nM (two-fold dilutions). All analytes were injected in duplicate. Sensorgrams from the overnight kinetics were evaluated by using 1:1 kinetics model fitting.
For orientation: In SPR one partner is held on a chip, and binding of the other changes the refractive index at the surface.

Assay [7] deals with T3, recombinant human FCER1A-His (ACRO FCA-H5228) (human, UniProt P12319 26-205).
T3 construct: Bought protein; also called FceRIA; IgE receptor
T3 sequence: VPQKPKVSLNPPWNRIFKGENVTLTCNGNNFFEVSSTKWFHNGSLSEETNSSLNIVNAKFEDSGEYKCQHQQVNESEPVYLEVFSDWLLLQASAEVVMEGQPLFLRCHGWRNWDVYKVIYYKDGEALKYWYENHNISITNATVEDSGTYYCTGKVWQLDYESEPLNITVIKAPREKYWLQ
The assay is described as follows: SPR, antibody alone injected over captured FCER1A. On the procedure: as §2
(§3) Anti-His antibody (1 mg/ml stock) was diluted (1:100 dilution, 0.01 mg/ml diluted concentration) in 10 mM sodium acetate buffer at pH 4.5 and immobilized onto FCs 1 and 2 to a level of ˜14000 RU, using the standard amine coupling chemistry. […] FCER1A (0.4 mg/ml stock concentration) was diluted ([…], ˜0.004 mg/ml diluted concentration) in PBS-P captured onto FC2 to levels of ˜130 RU. PBS-P was used as the capture running buffer. Overnight kinetics were performed for all analytes in the presence of PBS-P. The flow rate of all analyte solutions was maintained at 50 μL/min. The contact and dissociation times used were 120 seconds and 300 seconds, respectively. Glycine pH 1.5 was injected for 20 seconds for surface regeneration. This regeneration condition takes away all captured FCER1A. Therefore, fresh FCER1A was captured in the beginning of each injection cycle. […] All analytes were injected in duplicate. […] Sensorgrams from the overnight kinetics were plotted for further evaluation.

The target in assay [8] is T2, human IgE. The assay is described as follows: ELISA, plate-coated IgE. For orientation: ELISA stands for enzyme-linked immunosorbent assay.
Assay [9] deals with T2, human IgE. Briefly: ELISA, plate-coated IgE, apparent Kd (one site fit). The source says:
The data was plotted and analyzed using GraphPad Prism analysis software.

In assay [10] the target is T2, human IgE. The assay is described as follows: SPR, blocks binding of 5 nM IgE to captured FCER1A. On the procedure:
as §2, §3

T1 sequence (P01854 other isoform, or with tags, fused parts or gaps): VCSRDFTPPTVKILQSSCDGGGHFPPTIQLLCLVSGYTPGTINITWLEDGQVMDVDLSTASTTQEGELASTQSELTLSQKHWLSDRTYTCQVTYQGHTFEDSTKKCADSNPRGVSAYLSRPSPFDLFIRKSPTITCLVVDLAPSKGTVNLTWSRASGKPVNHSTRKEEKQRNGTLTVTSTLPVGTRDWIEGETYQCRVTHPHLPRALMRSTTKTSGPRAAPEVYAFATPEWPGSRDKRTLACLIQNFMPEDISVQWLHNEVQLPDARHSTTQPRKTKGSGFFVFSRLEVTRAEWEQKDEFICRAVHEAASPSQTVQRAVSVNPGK
T2 sequence (P01854 other isoform, or with tags, fused parts or gaps limits assumed, form in doubt): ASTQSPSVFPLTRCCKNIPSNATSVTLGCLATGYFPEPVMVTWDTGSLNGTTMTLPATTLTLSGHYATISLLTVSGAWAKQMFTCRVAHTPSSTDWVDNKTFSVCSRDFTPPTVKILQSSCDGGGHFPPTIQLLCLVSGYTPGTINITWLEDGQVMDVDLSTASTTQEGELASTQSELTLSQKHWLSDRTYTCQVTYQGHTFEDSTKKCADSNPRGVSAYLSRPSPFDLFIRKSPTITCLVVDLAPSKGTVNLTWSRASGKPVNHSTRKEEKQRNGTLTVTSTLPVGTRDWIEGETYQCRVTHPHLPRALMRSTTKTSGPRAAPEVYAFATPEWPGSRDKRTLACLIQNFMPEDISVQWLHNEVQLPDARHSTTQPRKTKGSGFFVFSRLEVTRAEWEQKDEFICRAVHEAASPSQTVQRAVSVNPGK

B1: B10-NNT (Fc fusion)
VHH-Fc: EVQLVQSGGELVQAGGSLRLSCVASGLTFSSYNMGWLRQAPGKEREFVGMSGSSSTSTYYADSVKGRFTISRDNSKNTVYLQMNSLKPEDTAVYYCAARRMLSTYWSDRSWDFWGQGTQVTVKPGGPSVFLFPPKPKDTLMISRTPEVTCVVVDVSHEDPEVKFNWYVDGVEVHNAKTKPREEQYNSTYRVVSVLTVLHQDWLNGKEYKCKVSNKALPAPIEKTISKAKGQPREPQVYTLPPSRDELTKNQVNLTCLVKGFYPSDIAVEWESNGQPENNYKTTPPVLDSDGSFFLNSTLTVDKSRWQQGNVFSCSVMHEALHNHYTQKSLSLSPGK
notes: monomeric; also called parental B10 monomeric VHH-hIgG1-Fc fusion (Fc NNT)
With B1, the Bmax was 1.17e+06 MFI in assay [1], 2.04e+06 MFI in [3], 1.36e+06 MFI in assay [4] and 866000 MFI in [5]. The Kd was determined as 1.3 nM in assay [1]; 1.82 nM in assay [2]; 0.872 nM in assay [3]; 1.82 nM in [4]; 0.461 nM in assay [5].

B2: hzB10v30-NNT (Fc fusion)
VHH-Fc: EVQLLESGGGEVQPGGSLRLSCVASGLTFSSYNMGWLRQAPGKEREFVGLSGSSSTSTYYAESVKGRFTISRDNSKNTVYLQMTSLRAEDTAVYYCAARRLLSTYWSDRSWDFWGQGTQVTVEPGGPSVFLFPPKPKDTLMISRTPEVTCVVVDVSHEDPEVKFNWYVDGVEVHNAKTKPREEQYNSTYRVVSVLTVLHQDWLNGKEYKCKVSNKALPAPIEKTISKAKGQPREPQVYTLPPSRDELTKNQVNLTCLVKGFYPSDIAVEWESNGQPENNYKTTPPVLDSDGSFFLNSTLTVDKSRWQQGNVFSCSVMHEALHNHYTQKSLSLSPGK
notes: monomeric
The molecule B2 registered a Kd in assay [3] of 1.69 nM. Also, in [5], the Bmax was found to be 725000 MFI and the Kd was determined as 1.63 nM.

B3: hzB10v14-IgG1 DSELF Fc region (cx12739) (Fc fusion)
chain: EVQLLESGGGEVQPGGSLRLSCVASGLTFSSYNMGWLRQAPGKEREFVGLSGSSSTSTYYADSVKGRFTISRDNSKNTVYLQMNSLKPEDTAVYYCAARRLLSTYWSDRSWDFWGQGTQVTVEPGGGGDKTHTCPPCPAPELLDGPSVFLFPPKPKDTLMISRTPEVTCVVVDVEHEDPEVKFNWYVDGVEVHNAKTKPREEQYNSTYRVVSVLTVLHQDWLNGKEYKCKVSNKAFPAPIEKTISKAKGQPREPQVYTLPPSREEMTKNQVSLTCLVKGFYPSDIAVEWESNGQPENNYKTTPPVLDSDGSFFLYSKLTVDKSRWQQGNVFSCSVMHEALHNHYTQKSLSLSPGK
notes: hzB10v14 VHH + GGGG linker + human IgG1 Fc with G236D/S267E/L328F; the Fc drives homodimer formation (bivalent); also called hzB10v14-DSELF; hzB10v14-IgG DSELF Fc
What is called koff is a measure of how fast the partners let go of each other. In general, kon refers to a measure of how fast the partners come together. Low readings indicate slow association, high ones fast association. Broadly, the IC50 is the point on the concentration scale where inhibition reaches its midpoint. High values mean a need for much substance, low ones inhibition by little substance. In [6], B3 yielded a Kd of 0.8 nM, a dissociation rate constant (koff) of 0.000288 s⁻¹ and a kon of 359000 M⁻¹ s⁻¹. In addition, in assay [7], the binding result was “no binding (tested: 200 nM)”. Also, in assay [8], the “Bmax (OD 650 nm)” value came to 0.742 OD 650 nm. Moreover, in assay [9], the Kd is 0.197 nM. Further, the IC50 in assay [10] is ~2.4 nM.
